Results as given in patent publication US20240301062A1 (BEIGENE SWITZERLAND, published 2024).
“And” between values parts separate entries of the source, which are not always exact repeats. Equal values may be shown once.

T1: human claudin 6 (CLDN6) (human, UniProt P56747 1-220)
T1 construct: also called human CLDN6; hCLDN6
T1 sequence: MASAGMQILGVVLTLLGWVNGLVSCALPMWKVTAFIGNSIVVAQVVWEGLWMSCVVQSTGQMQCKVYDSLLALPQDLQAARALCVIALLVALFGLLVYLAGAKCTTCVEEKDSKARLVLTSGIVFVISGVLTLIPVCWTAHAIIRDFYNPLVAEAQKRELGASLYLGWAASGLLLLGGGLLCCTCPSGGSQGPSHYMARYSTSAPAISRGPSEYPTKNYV

T2: mouse CLDN6 (mouse, UniProt Q9Z262 1-219)
T2 construct: whole, on cells
T2 sequence (looked up): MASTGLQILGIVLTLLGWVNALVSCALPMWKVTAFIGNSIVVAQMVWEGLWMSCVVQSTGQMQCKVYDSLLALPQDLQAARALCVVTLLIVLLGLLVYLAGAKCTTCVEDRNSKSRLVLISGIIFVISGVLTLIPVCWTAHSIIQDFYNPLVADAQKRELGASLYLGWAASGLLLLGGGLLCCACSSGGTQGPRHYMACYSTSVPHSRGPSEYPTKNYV


What was measured:
cyno CLDN6 [1] = target: T3, cyno CLDN6 (cyno); test: FACS, HEK293T_cyno-CLDN6 cells
T3 construct: whole, on cells; also called cynomolgus CLDN6

human claudin 6 (CLDN6) [2] = target: T1, human claudin 6 (CLDN6); test: FACS, HEK293T-hCLDN6 cells
human claudin 6 (CLDN6) [3] = target: T1, human claudin 6 (CLDN6); test: FACS, HEK293T/human CLDN6 cells
Protocol: (§1) For affinity determination, CLDN6 over-expressing HEK293T cells and cancer cell line PA-1 which express high levels of human CLDN6 were used to evaluate the binding activity of BG87P related engineering variants. Live cells were seeded in 96-well plate, and were incubated with a series of dilutions of chBG87P and engineered variants thereof. Goat anti-human IgG was used as second antibody to detect antibody binding to the cell surface. EC50 values for dose-dependent binding to CLDN6 expressing cell lines were determined by fitting the dose-response data to the four-parameter logistic model with GraphPad Prism. Cell binding activity of 1st round of BG87P humanization variants against HEK293T/human CLDN6 were compared to chBG87P and shown in FIG. 1A.
Beginning with the chBG87P antibody and BG87P-Bz0, several additional amino acid changes in the CDR regions of both VH and VL were made to further improve the biophysical properties for therapeutics use in human. The considerations included removing post translational modifications (PTM), improved heat stability (Tm), while maintaining binding activities, the resulted variants are BG87P-m1 (VH SEQ ID NO: 31 and VL SEQ ID NO: 8), BG87P-m2 (VH SEQ ID NO: 32 and VL SEQ ID NO: 8), BG87P-m3 (VH SEQ ID NO: 33 and VL SEQ ID NO: 8), and BG87P-m4 (VH SEQ ID NO: 34 and VL SEQ ID NO: 8) and BG87P-m5 (VH SEQ ID NO: 35 and VL SEQ ID NO: 14), BG87P-m6 (VH SEQ ID NO: 36 and VL SEQ ID NO 14), BG87P-m7 (VH SEQ ID NO: 37 and VL SEQ ID NO: 14), and BG87P-m8 (VH SEQ ID NO: 38 and VL SEQ ID NO: 14). Cell binding activity of chBG87P and BG87P-Bz0 related PTM removal variants against HEK293T/human CLDN6 was compared with chBG87P and BG87-Bz0, respectively ([…]). Cell binding affinity (EC50) and Emax (MFI) was normalized to chBG87P for directly comparison and ranking (Table 7).

human claudin 6 (CLDN6) [4] = target: T1, human claudin 6 (CLDN6); test: FACS, HEK293-hCLDN6 cells
cyno CLDN6 [5] = target: T3, cyno CLDN6; test: flow cytometry on CHOK1/cyno CLDN6 cells, MFI(PE)
human claudin 6 (CLDN6) [6] = target: T1, human claudin 6 (CLDN6); test: FACS, PA-1 cells (endogenous CLDN6)
Protocol: as §1

human claudin 6 (CLDN6) [7] = target: T1, human claudin 6 (CLDN6); test: flow cytometry on HEK293T/human CLDN6 cells, goat anti-human IgG secondary, MFI(PE)
Protocol: as §1

mouse CLDN6 = target: T2, mouse CLDN6; test: flow cytometry on CHOK1/mouse CLDN6 cells, MFI(PE)
cyno CLDN6 [8] = target: T3, cyno CLDN6; test: FACS, HEK293T-cyno-CLDN6 cells

Row | Binder | EC50 (cyno CLDN6 [1]) [nM] | FACS Emax ratio to BG87P (human claudin 6 (CLDN6) [2]) [ratio] | EC50 (human claudin 6 (CLDN6) [3]) [nM] | Emax ratio to BG87P (human claudin 6 (CLDN6) [3]) [ratio] | Top MFI Mean (human claudin 6 (CLDN6) [3]) [MFI] | FACS-Ec50 ratio to BG87P (human claudin 6 (CLDN6) [4]) [ratio] | EC50 (read off the curve) (cyno CLDN6 [5]) [nM] | EC50 (human claudin 6 (CLDN6) [6]) | Emax ratio to BG87P (human claudin 6 (CLDN6) [6]) [ratio] | EC50 (read off the curve) (human claudin 6 (CLDN6) [7]) [nM] | binding result (mouse CLDN6) | FACS Emax ratio to BG87P (cyno CLDN6 [8]) [ratio] | Top MFI Mean (human claudin 6 (CLDN6) [6]) [MFI]
1 | BG87P-21 (antibody, V domains shown) VH: QVQLVQSGAEVKKPGASVKVSCKASGYSFTDYHINWVRQAPGQRLEWMGWIYPGSGYTKYNEKFKGRVTITRDTSASTAYMELSSLRSEDTAVYYCARSGIYHYVSSYYFDHWGKGTTVTVSS VL: DIQMTQSPSTLSASVGDRVTITCKASQDVGTAVAWYQQKPGKAPKLLIYWASTRHTGVPSRFSGSGSGTEFTLTISSLQPDDFATYYCQQYSSYTFGGGTKVEIK | 8.9 | 0.66 | 3.07 | 0.78 | 149000 | 0.91 | ~9 | 2.8 nM and 2.62 nM | 0.61 | ~10 | binds | 0.8 | –
2 | BG87P-22 (antibody, V domains shown) VH: QVQLVQSGAEVKKPGASVKVSCKASGYSFTDYHINWVRQAPGQRLEWMGWIYPGSGYTKYNEKFKGRVTITRDTSASTAYMELSSLRSEDTAVYFCARSGIYHYVSSYYFDHWGKGTTVTVSS VL: DIQMTQSPSTLSASVGDRVTITCKASQDVGTAVAWYQQKPGKAPKLLIYWASTRHTGVPSRFSGSGSGTEFTLTISSLQPDDFATYYCQQYSSYTFGGGTKVEIK | – | – | 2.12 | 0.71 | 137000 | – | – | 3.01 nM and 3 nM | 0.54 | – | – | – | –
3 | BG87P-23 (antibody, V domains shown) VH: QIQLVQSGAEVKKPGASVKVSCKASGYSFTDYHINWVRQAPGQRLEWMGWIYPGSGYTKYNEKFKGRVTITRDTSASTAYMELSSLRSEDTAVYYCARSGIYHYVSSYYFDHWGKGTTVTVSS VL: DIQMTQSPSTLSASVGDRVTITCKASQDVGTAVAWYQQKPGKAPKLLIYWASTRHTGVPSRFSGSGSGTEFTLTISSLQPDDFATYYCQQYSSYTFGGGTKVEIK | – | – | 2.43 | 0.77 | 148000 | – | – | 2.49 nM | 0.58 | – | – | – | 72500
4 | BG87P-24 (antibody, V domains shown) VH: QVQLVQSGAEVKKPGASVKVSCKASGYSFTDYHINWVRQAPGQRLEWMGWIYPGSGYTKYNEKFKGRVTLTRDTSASTAYMELSSLRSEDTAVYYCARSGIYHYVSSYYFDHWGKGTTVTVSS VL: DIQMTQSPSTLSASVGDRVTITCKASQDVGTAVAWYQQKPGKAPKLLIYWASTRHTGVPSRFSGSGSGTEFTLTISSLQPDDFATYYCQQYSSYTFGGGTKVEIK | – | – | 2.16 | 0.73 | 141000 | – | – | 2.27 nM | 0.5 | – | – | – | 62400
5 | BG87P-25 (antibody, V domains shown) VH: QIQLVQSGAEVKKPGASVKVSCKASGYSFTDYHINWVRQAPGQRLEWMGWIYPGSGYTKYNEKFKGRVTLTRDTSASTAYMELSSLRSEDTAVYYCARSGIYHYVSSYYFDHWGKGTTVTVSS VL: DIQMTQSPSTLSASVGDRVTITCKASQDVGTAVAWYQQKPGKAPKLLIYWASTRHTGVPSRFSGSGSGTEFTLTISSLQPDDFATYYCQQYSSYTFGGGTKVEIK | – | – | 2.33 | 0.74 | 143000 | – | – | 2.34 nM | 0.59 | – | – | – | 73700
6 | BG87P-26 (antibody, V domains shown) VH: QIQLVQSGAEVKKPGASVKVSCKASGYSFTDYHINWVRQAPGQRLEWMGWIYPGSGYTKYNEKFKGRVTITRDTSASTAYMELSSLRSEDTAVYFCARSGIYHYVSSYYFDHWGKGTTVTVSS VL: DIQMTQSPSTLSASVGDRVTITCKASQDVGTAVAWYQQKPGKAPKLLIYWASTRHTGVPSRFSGSGSGTEFTLTISSLQPDDFATYYCQQYSSYTFGGGTKVEIK | – | – | 2.3 | 0.77 | 148000 | – | – | 2.3 nM and 2.52 nM | 0.54 | – | – | – | 68000
7 | BG87P-27 (antibody, V domains shown) VH: QVQLVQSGAEVKKPGASVKVSCKASGYSFTDYHINWVRQAPGQRLEWMGWIYPGSGYTKYNEKFKGRVTLTRDTSASTAYMELSSLRSEDTAVYFCARSGIYHYVSSYYFDHWGKGTTVTVSS VL: DIQMTQSPSTLSASVGDRVTITCKASQDVGTAVAWYQQKPGKAPKLLIYWASTRHTGVPSRFSGSGSGTEFTLTISSLQPDDFATYYCQQYSSYTFGGGTKVEIK | – | – | 2 | 0.68 | 131000 | – | – | 1.68 nM | 0.53 | – | – | – | 66700
8 | BG87P-z0 (antibody, V domains shown) VH: QVQLVQSGAEVKKPGASVKVSCKASGYTFTDYHINWVRQAPGQRLEWMGWIYPGSGYTKYNEKFKVRVTITRDTSASTAYMELSSLRSEDTAVYYCARSGIYHYVSSYYFDHWGKGTTVTVSS VL: DIQMTQSPSTLSASVGDRVTITCKASQDVGTAVAWYQQKPGKAPKLLIYWASTRHTGVPSRFSGSGSGTEFTLTISSLQPDDFATYYCQQYSSYTFGGGTKVEIK | – | – | 2.45 | 0.5 | 95600 | – | – | 3.25 nM | 0.43 | – | – | – | 53200
9 | BG87P-33 (antibody, V domains shown, Framework-swapped variant; also called BG87-33) VH: EVQLQESGGGLVQPGGSLRLSCAASGYSFTDYHINWVRQAPGKGLEWVSYIYPGSGHTKYNEKFKGRFTISRDTSKNTAYLQMNSLRAEDTAVYYCARSGIYHYVSSYYFDHWGQGTLVTVSS VL: DIQMTQSPSTLSASVGDRVTITCKASQDAGSAVAWYQQKPGKAPKLLIYWASTRHTGVPSRFSGSGSGTEFTLTISSLQPDDFATYYCQQYSSYTFGGGTKVEIK | 25.8 | 0.91 | – | – | – | 2.45 | – | – | – | – | binds | 0.75 | –
10 | BG87P-m4 (antibody, V domains shown, Variant of chBG87P with H33A; constant regions not restated (parent: human IgG1/kappa)) VH: QIQLQQSGPELVKPGASVKISCKASGYSFTDYAINWVKQRPGQGLEWIGWIYPGSGYTKYNEKFKVKATLTVDTSSSTAYMHLTSLTSEDSAVYFCARSGIYHYVSSYYFDHWGQGTTLTVSS VL: DIVMTQSHTFMSTSVGDRVSITCKASQDVGTAVAWYQQKPGQSPKLLIYWASTRHTGVPDRFTGSGSGTDFTLTISNVQSEDLADYFCQQYSSYTFGGGTKLEIK | – | – | 11.8 | 0.74 | 143000 | – | – | – | – | – | – | – | –
11 | BG87P-32 (antibody, V domains shown, Solubility engineering variant of BG87P-21) VH: QVQLQQSGAETKKPGASVKVSCKASGYSFTDYHINWVRQASGQRLEWMGYIYPGSGHTKKNEKFKGRVTITRDTSASTAYMELSSLRSEDTAVYYCARSGIYHYVSSYYFDHWGKGTTVTVSS VL: DIQMTQSPSTLSASVGDRVTITCKASQDAGSAVAWYQQKPGKAPKLLIYWASTRHTGVPSRFSGSGSGTEFTLTISSLQPDDFATYYCQQYSSYTFGGGTKVEIK | – | 0.63 | – | – | – | 1.31 | – | – | – | – | – | – | –
12 | BG87P-31 (antibody, V domains shown, Solubility engineering variant of BG87P-21) VH: QVQLQQSGAETKKPGASVKVSCKASGYSFTDYHINWVRQASGQRLEWMGYIYPGSGHTKKNEKFKGRVTITRDTSASTAYMELSSLRSEDTAVYYCARSGIYHYVSSYYFDHWGKGTTVTVSS VL: DIQMTQSPSTLSASVGDRVTITCKASQDAGSAVAWYQQKPGKAPKLLIKWASTRHTGVPSRFSGSGSGTEFTLTISSLQPDDFATYYCQQYSSYTFGGGTKVEIK | – | 0.76 | – | – | – | 1.6 | – | – | – | – | – | – | –
